From article PMC3303795, “Incorporation of Noncanonical Amino Acids into Rosetta and Use in Computational Protein-Peptide Interface Design” (PLoS ONE, 2012)
Like-named read-outs stand apart in the source and are kept apart here. Each block holds one molecule with its values, some of them ahead of it. Where a SMILES comes first, the peptide text is derived from it. [ ]: non-standard residue; d: D form. The star is where a group is joined. 5FAM = O=C1OC2(c3ccc(O)cc3Oc3cc(O)ccc32)c2ccc(C(=O)*)cc21; hSer = N[C@@H](CCO)C(=O)O; Nva = CCC[C@H](N)C(=O)O; Abu = CC[C@H](N)C(=O)O; βAla = NCCC(=O)O

How the values were obtained:
[1] = molecular target: T1, porcine calpain-1 (Sus scrofa, UniProt P04574); test: Fluorescence polarization binding assay of labelled calpastatin peptides with purified calpain; settings: calpain titrated into 500 nM labelled peptide; 50 mM NaP, 50 mM NaCl, 5 mM BME, 1 mM CaCl2, 1 mM EDTA, pH 8.0; room temperature; 3 polarization readings averaged per concentration; single state binding model; read-out: Experimental KD
T1 construct: GST (N, cleaved yes); made in house; host or cells: E. coli (pET41b vector)
T1 sequence (P04574 94-266 limits assumed): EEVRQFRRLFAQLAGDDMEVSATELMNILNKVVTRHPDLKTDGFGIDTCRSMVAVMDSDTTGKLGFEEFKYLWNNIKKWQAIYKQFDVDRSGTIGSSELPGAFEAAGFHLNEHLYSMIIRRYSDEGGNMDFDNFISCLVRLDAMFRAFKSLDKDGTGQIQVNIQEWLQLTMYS
Method: Calpain was expressed as a GST-fusion protein in E. coli that had been transfected with a pet41b vector that contained the gene encoding porcine calpain-1. The cells were grown in Luria-Bertani broth with 50 ug/ml kanamycin at 37 degrees Celsius to an OD600 of 0.6 at which point 1 mM isopropyl β-D-1-thiogalactopyranoside (IPTG) was added to induce expression. Cells were grown for an additional 4 hours and harvested by centrifugation. Cells were resuspended in a buffer containing 50 mM NaPO4, 150 mM NaCl, 5 mM BME at pH 8.0 and lysed by sonication. Lysate was centrifuged at 12500 g for 30 minutes and the supernatant was run over a GSTrap-FF column that had been equilibrated with the lysis buffer. After loading, the column was washed with 10 column volumes of the lysis buffer before the GST-calpain was eluted with 50 mM Tris and 10 mM reduced glutithione, pH 8.0. The eluent was monitored by absorbance at 280 nm.5 mL fractions were collected. Those fractions which absorbed at 280 nm were pooled. Thrombin was added to separate the calpain from the GST and the cleavage reaction was allowed to cleave overnight at 4 Celsius. To remove the GST the protein was further purified with a Sephacryl S-200 gel filtration column using a buffer containing 50 mM NaPO4, 50 mM NaCl, 5 mM BME, 1 mM CaCl2, 1 mM EDTA at pH 8.0. The protein was concentrated through centrifugation via a spin column with a 15 K molecular weight cutoff and found to be pure and ran true to predicted size on SDS-PAGE gels.
Purified calpain was manually titrated in to a solution containing 500 nM calpastatin with 50 mM NaP, 50 mM NaCl, 5 mM BME, 1 mM CaCl2, 1 mM EDTA at pH 8.0, till the change in fluorescence polarization reached a plateau. Binding assays were performed at room temperature, 3 polarization readings were averaged for each concentration. Disassociation constants were calculated by fitting the data to a single state binding model using Sigma plot software.

[2] = molecular target: T2, calpastatin peptide Ser607 to amino butyric acid (5FAM–βALA–PDDAIDAL(ABU)DDFTS-amide); test: fluorescence polarisation; purified calpain manually titrated into 500 nM labelled calpastatin peptide; 50 mM NaP, 50 mM NaCl, 5 mM BME, 1 mM CaCl2, 1 mM EDTA, pH 8.0; room temperature; single state binding model
T2 chain: PDDAIDALXDDFTS

[3] = molecular target: T3, calpastatin peptide Ser607 to norvaline (5FAM–βALA–PDDAIDAL(NVL)DDFTS-amide); test: as above
T3 chain: PDDAIDALXDDFTS

[4] = molecular target: T4, wild type calpastatin subdomain C peptide, FITC-labelled (FITC–βALA–…-amide); test: as above
T4 chain: PDDAIDALSDDFTS

[5] = molecular target: T5, wild type calpastatin subdomain C peptide, 5FAM-labelled (5FAM–βALA–…-amide); test: as above
T5 chain: PDDAIDALSDDFTS

[6] = molecular target: T6, calpastatin peptide Phe610 to 4-methyl-phenylalanine (FITC–βALA–…(4MF)TS-amide); test: as above
T6 chain: PDDAIDALSDDFTS

[7] = molecular target: T7, calpastatin peptide Asp609 to 1-methyl-histidine (5FAM–βALA–…(1MH)FTS-amide); test: as above
T7 chain: PDDAIDALSDHFTS

[8] = molecular target: T8, calpastatin peptide Asp609 to homoserine (5FAM–βALA–…(HSE)–FTS-amide); test: as above
T8 chain: PDDAIDALSDXFTS

[9] = molecular target: T4, wild type calpastatin subdomain C …; test: as above

Kd [1]: 8.56 ± 0.95 µM
Molecule: CCC[C@H](NC(=O)[C@H](CC(C)C)NC(=O)[C@H](C)NC(=O)[C@H](CC(=O)O)NC(=O)[C@@H](NC(=O)[C@H](C)NC(=O)[C@H](CC(=O)O)NC(=O)[C@H](CC(=O)O)NC(=O)[C@@H]1CCCN1C(=O)CCNC(=O)c1ccc2c(c1)C(=O)OC21c2ccc(O)cc2Oc2cc(O)ccc21)[C@@H](C)CC)C(=O)N[C@@H](CC(=O)O)C(=O)N[C@@H](CC(=O)O)C(=O)N[C@@H](Cc1ccccc1)C(=O)N[C@H](C(=O)N[C@@H](CO)C(N)=O)[C@@H](C)O [NVL (5FAM)] ({5FAM-βAla}-PDDAIDAL[Nva]DDFTS-NH2)

Kd [1]: 7.48 ± 0.68 µM
Molecule: CC[C@H](C)[C@H](NC(=O)[C@H](C)NC(=O)[C@H](CC(=O)O)NC(=O)[C@H](CC(=O)O)NC(=O)[C@@H]1CCCN1C(=O)CCNC(=O)c1ccc2c(c1)C(=O)OC21c2ccc(O)cc2Oc2cc(O)ccc21)C(=O)N[C@@H](CC(=O)O)C(=O)N[C@@H](C)C(=O)N[C@@H](CC(C)C)C(=O)N[C@@H](CO)C(=O)N[C@@H](CC(=O)O)C(=O)N[C@@H](CCO)C(=O)N[C@@H](Cc1ccccc1)C(=O)N[C@H](C(=O)N[C@@H](CO)C(N)=O)[C@@H](C)O [HSE (5FAM)] ({5FAM-βAla}-PDDAIDALSD[hSer]FTS-NH2)

Kd [1]: 6.6 ± 0.65 µM
Molecule: CC[C@H](C)[C@H](NC(=O)[C@H](C)NC(=O)[C@H](CC(=O)O)NC(=O)[C@H](CC(=O)O)NC(=O)[C@@H]1CCCN1C(=O)CCNC(=O)c1ccc2c(c1)C(=O)OC21c2ccc(O)cc2Oc2cc(O)ccc21)C(=O)N[C@@H](CC(=O)O)C(=O)N[C@@H](C)C(=O)N[C@@H](CC(C)C)C(=O)N[C@@H](CO)C(=O)N[C@@H](CC(=O)O)C(=O)N[C@@H](CC(=O)O)C(=O)N[C@@H](Cc1ccccc1)C(=O)N[C@H](C(=O)N[C@@H](CO)C(N)=O)[C@@H](C)O [WT (5FAM), reference compound] ({5FAM-βAla}-PDDAIDALSDDFTS-NH2)

Kd [1]: 5.8 ± 1.2 µM
Molecule: CC[C@H](NC(=O)[C@H](CC(C)C)NC(=O)[C@H](C)NC(=O)[C@H](CC(=O)O)NC(=O)[C@@H](NC(=O)[C@H](C)NC(=O)[C@H](CC(=O)O)NC(=O)[C@H](CC(=O)O)NC(=O)[C@@H]1CCCN1C(=O)CCNC(=O)c1ccc2c(c1)C(=O)OC21c2ccc(O)cc2Oc2cc(O)ccc21)[C@@H](C)CC)C(=O)N[C@@H](CC(=O)O)C(=O)N[C@@H](CC(=O)O)C(=O)N[C@@H](Cc1ccccc1)C(=O)N[C@H](C(=O)N[C@@H](CO)C(N)=O)[C@@H](C)O [ABU (5FAM)] ({5FAM-βAla}-PDDAIDAL[Abu]DDFTS-NH2)

Kd [2]: 5.8 µM
Kd [3]: 8.56 µM
Kd [4]: 5.77 µM
Kd [5]: 6.6 µM
Kd [6]: 2.6 µM
Kd [7]: 5.81 µM
Kd [8]: 7.48 µM
Kd [9]: 5800 µM
B1: porcine calpain-1 (enzyme)
chain: EEVRQFRRLFAQLAGDDMEVSATELMNILNKVVTRHPDLKTDGFGIDTCRSMVAVMDSDTTGKLGFEEFKYLWNNIKKWQAIYKQFDVDRSGTIGSSELPGAFEAAGFHLNEHLYSMIIRRYSDEGGNMDFDNFISCLVRLDAMFRAFKSLDKDGTGQIQVNIQEWLQLTMYS
modifications: not checked
